Assay: soluble on expression in E. coli; label from the status in PepcDB or PDB records

Soluble on expression in E. coli, soluble:
MDMSLAEDAQETMATLAPDRFFFMSPYRSFTTSGCFARYTEPAVAGDSPDSPFQQKLRQQFAEAKSQGIANPILVGAIPFDTRQPSSLFIPMAWQSFSRQQKQRTARYFTDHQSLTVTARKAIPEQDAFEAMVARAAMLTATPDVDKVVLSRLIDITTDVAVDSGALLERLVAQNPVSYNFHVPLADGGVLLGASPELLLRKEGERFSSLPLAGSARRQPDDVLDREAGNRLLASQKDRHEHELVTQAMKQILRDRSTELQLPSSPQLITTPTLWHLGTPFEGKANAGENALTLACLLHPTPALSGFPHQVAKKLIAELEPFDRELFGGIVGWCDAEGNGEWVVTIRCAKLHGNQVRLFAGAGIVPASSPVGEWRETGVKLSTMLNVFGLH
MMKRNILAVIVPALLVAGTANAAEIYNKDGNKVDLYGKAVGLHYFSKGNGENSYGGNGDMTYARLGFKGETQINSDLTGYGQWEYNFQGNNSEGADAQTGNKTRLAFAGLKYADVGSFDYGRNYGVVYDALGYTDMLPEFGGDTAYSDDFFVGRVGGVATYRNSNFFGLVDGLNFAVQYLGKNERDTARRSNGDGVGGSISYEYEGFGIVGAYGAADRTNLQEAQPLGNGKKAEQWATGLKYDANNIYLAANYGETRNATPITNKFTNTSGFANKTQDVLLVAQYQFDFGLRPSIAYTKSKAKDVEGIGDVDLVNYFEVGATYYFNKNMSTYVDYIINQIDSDNKLGVGSDDTVAVGIVYQF
MKNIIPQALLTMPILSTGLQAQEKQPTPNLVFIMADQYRGDAIGCIGKEPVKTPHLDKLASEGINFTNAISSYPVSSPARGMLMTGMYPIGSKVTGNCNSETAPYGVELSQNARCWSDVLKDQGYNMGYIGKWHLDAPYKPYVDTYNNRGKVAWNEWCPPERRHGFDHWIAYGTYDYHLKPMYWNTTAPRDSFYYVNQWGPEYEASKAIEYINGQKDQKQPFALVVSMNPPHTGYELVPDRYKEIYKDLDVEALCKGRPDIPAKGTEMGDYFRNNIRNYYACITGVDENVGRIIEALKQNNLFDNTIVVFTSDHGICMGAHENAGKDIFYEESMRIPMILSWPDQIKPRKSDPLMIAFADLYPTLLSMMGFSKEIPETVQTFDLSNEVLTGKNKKDLVQPYYFVKFDNHATGYRGLRTDRYTYAVHATDGKIDNVILFDRTNDPHEMNNIASQQLKLTHTFNRQLKTWLEKTNDPFAQYIKLKLEHHHHHH
SPSCSPQQASKAEENGSNSFMHSMVPQLEWQMETTQSLVDSYVAIVNKTVWDLMVGLTPKTIMHLMINNNKEFIFSELLANLYLHGDKNMLMEESAEQAQRS
MVSLRSGKRVSRPSPSTPLEKPAETSTNPMETPKRAVKGQKTVEEKEKLPISLRKSERLAKNSGENSSAEIAEEHKEIVAPSQENSVDDDAESTQLSVDVFADPSDFEDDDDEVVPETDYEDNNEEPKNDQNPVEIPDNSDSDDDEPMEISSKNPVTSIENPENSDSDDDEPMEATSKAPEMSVAEPKSIIEKLLEKKAEKSAKLAAKKLKKRSKKKEAKKISDGVFQVKMKKSKAKFNVVTLKAGVQNILEPQINFREELLKSRTAGTRLADTEKFLQRGKWVSKR
MCMEKFYKVGTIVNTQGLQGEVRVMPSTDFAQERFSKGSVLALFDDKDNYIQDLKVKSGRPQKNFYVVKFEGFYHINDVEKYKGYIVKIAEENQEDLDDGEFYYHEIIGSDVYENDILIGQISEILQPGANDVWVVKRKGKRDLLLPYIPPVILNVDVNQHRVDVSIMEGLDDLEHHHHHH
MAEAIFSAIVGDVIGRVISLVVSNFNGDHSTEVKLQRICRMLIKIHSVVEEAKGRQITNHGTLEWLSELIDGAYQGRYLLDTIGCGEPDLDDKNRDEVDPKPFSLSKFNPAKRVRVAAFTVRNILSRHDIGVDEIDRVVESLQSMCGDLKEFMMLLQACQPIHRPLATNIFIEGQMFGRHVKKEMIINFLLHEDDLPRGKLGVLPILGDIGVGKTTLVQHACDDARVRSHFTTILLFNFSHTYKMEMCEPKPVLRPKHVIGDVGNSDDPLHELEQSFFNKRFLIVFEDVDIHKKNMLEELLKSLSCGKQGSKIIVTTSNKHVTTIGTVQPIKLKFLPCPEYWFFFKAHAFAGTDVQENPRLVAAGKSIAAKLNGSFFGAKIIGAILKENPDPKFWCTVLQRDIGGLSLLGDGLGYIADLVEILLPSRLSVKEVFVSKNSLSSETELARLQGLCLPCPSSAPLATHSSELSLAKATSYERVLLCKAVLPFYSLYYTAKCAVDSENCYSKFSVV
GVSETAPASRRGELAVCDAVSGWVTDRRTAVDLRGREVEVLGEVPAAGGSPLRQYFFETRCKADNAEEGGPGAGGGGCRGVDRRHWVSECKAKQSYVRALTADAQGRVGWRWIRIDTACVCTLLSRTGRA
MISEKPAAKRIQSGGCAIHCQDCSISQLCIPFTLNESELDQLDQIIERKKPIQKGQELFKAGDELRSLYAIRSGTIKSYTITEQGDEQITAFHLAGDLVGFDAITGDQHPSFAQALETSMVCEIPYEILDDLSGKMPKLRQQIMRLMSNEIKGDQEMILLLSKKNAEERLAAFLYNLSTRFSQRGFSPREFRLTMTRGDIGNYLGLTVETISRLLGRFQKSEILSVKGKYITILNHAELMELAGVSKESK

Soluble on expression in E. coli, not soluble:
MAGAITHDHAAAAQGRQGGPLIVTEDVELLDDLLRLCAAAGARPEVHHTVPDGRGTWEAAPLVLVGDDAARRVRGAARRRGVVLVGRDQDDSGVWRRAVEIGADHVLLLPDGEQWLVDRIADVAEGVGRPALTVGVIGGRGGAGASTLACALAVTSARQGRRTLLVDADPLGGGLDVLLGGETAEGLRWPAFAASRGRVGGGALEESLPELHALRVLSWDRGDAVAVPPQAVRAVLAAARRRGGAVVVDLPRRVDEGAAEALAQVDLGVLVVPAELRAIAAAARVASAAGMVLGDLRVAVRGPYAPGLDDREVARLLGLPLLGEVPAEPPVPDGGVPPGGAARGPLARFCAVFWDRALVEAGGVLEHHHHHH
MAHHHHHHMHNFAKIFRSNFIDINAANKFEIFLKTILRIYKTPARTHLLAHAADISAIYAVRQIYNYMKNDEEGRTVLKEKPLLIRQDIQFNELKKLPKNTLGYKYMKFLETYKLHAHDREVSHFFTDLNYSYILTRYRQIHDIGHVVYNLNISIESEAALKLIELVQTKLPITLLAILVAPFMTPIYRFQYIFKDSLPSNFLSPNFDFTYTDAYNYVDELSIKQYEYNLTDYFHVEKRNDRNFYTKMYQHYFDNINNSSAVRGSIIYGFENKSSNDIIYDQPNREYIFLKNLKKKYLLFQYKPRKNLLRELYPWAYMAGVSTTKPLHSIHIEKWLDKDIDLFRRTYNISPLPDHLNLMAGIN
MDVQLPYNVKIEAFEGPLDLLLHLINRYEIDIYDIPVAQITEQYMAYIHAMQELELDIASEYLVMAATLLAIKSKMLLPPSNEEAVDGDIEWGDDGDPREELTQRLLEYKKFKEAARELKRREEERALLFTKPPSDLSAYADEKKAAPLDVNVYDMLGALSKLLRRKKLQKPMRAKISRQDISVEQRMAEILHELKQANGRKNFYELFPSYDRSYIVVTFLAILELMKQDEIIVEQERNFSDLFLAVKPAG
MAQLAKTAVAALSKKLVAPAAVARRTLATEASPEDYGYYPDPLEHATGREKKMLLARLAGDDRYEPKVYYRAEASTKQKPNLVPSHYDFRIIGCMCEQDSGHVNFMTIRKGDPKRCECGHWFKGVDADPESI
MGSDKIHHHHHHMTAQNGQDVWHEDILDDSAIAVLSYPIGEMQRDQLHSHGYHQIAMCEQPGATLLLGSQVVSIPWNGALLVPSGTDHALTSETRCVIRCIYFKAALPSTSIGSLFLNRLTKELIKEISTSYVTERSRRLMEACLYDQIGQLLWSSGSGMMPPSRSLRVICKHIFDTPEDDTPVATLAKDAGLSERSLRRLARDELGCTISQIRTRCRIYKATQLLQAGVPVKLIAADVGYQSNSAFFSAFREIMGMSPARFQAECAASRSLSHLRLK
MGSDKIHHHHHHMWDYDRLFEIIEELVMHHSPSGAEAEINQLLMQRFAALGVEVWCDRADNIIAKIPGKNPDRAMSNDKPLLYERLRQRAYAITAHKDEIGAIVKSLGDEGRVEVRKLGGSFPWVYGEGVVDLLGDRETISGILSFGSRHVSHESPQKVQQEDTTVKWENAWIETKRTTDELEAAGVRPGTRMVIGKHRKHPIRLKDHIASYTLDNKASVAILLALAENLKQPVVDVYLVASAKEEVGAIGALFFTQNQPLDALIALEVCPLSEEYPIKDGESPILLSQDAYGIYDEGLNGQVRQSAKQLDIPVQLTILSQFGSDASIAMKFGHVARAACLAFPTQNTHGYEIAHLGAIANCIDLLKAFCETEF
MTHVTLRSEFETLIDPYAPVAQVGTGFDFTEGPIWHPIDHYLLFSDMPGDVRRRWDARRGMAEVKRPSNKCNGMTYDAELNLIVCEHATSSLIRERPDGRREVLASHFGGQELNSPNDVCVHSSGAIYFSDPWYGRMPVYGVERPRQLGFQGVYRVMPGGEPKLVVDRNLFDQPNGLCFSPDERLLYVNDTVQALIRVFDVNADGTLSNARVFASSIKSELEPGLPDGMKCDQHGNVWVTAPGGVWVYSPRGELLGKVRVPELVANLAWGGPDFRTLYLTSTHSVYAIPTRVGPRHEPYMSGRRGGAGASAGPAAAAPILTDGEMRLDPQRCAMIIQDLQNDVIMDGGAFDGSGAPAHAKQQHVVENVRRLAEAARARGVAIIHVWFVVEPGAPGVTLNAPLFEGLVDSKAMVRGSWGAAPVSGLEPRPGDFVVEKMRMSAWEGTRLETILKATGRDMIINTGAWTNMSVEHTARTGADKGYFMIVPEDCCSTMNADWHSASINFAMQNVAIVTRADAVIRALGLEHHHHHH
MSDIEAVVVSDLHLGYEEEMNLHGLFLPRIQRDHITSVMDRIIERYNPQRIIINGDFKQEFSKNLPSEWTDVLYFIDRYDDRDLIFIRGNHDNYLATILSKKNIGMMDFYEDDRYFIYHGDRNMGIKKITILGHEHPSLVLRDRVGGVYKLPAFAFNFRRNVIITPSMSFFSSGTDLSQSLLSEEHFTPALKGMKPSCFRIFAITDEFGLVDFGYLDDLHSSGEQQIRDR
MPEGPAAVLAPRRKTRQLQVGTVGVGSDFPVSVQSMCTTKTHDVNATLQQIAELTASGCDIVRVACPRQEDADALATIAKKSQIPVIADIHFQPRYIFAAIEAGCAAVRVNPGNIKEFDGRVKEVAKAAGDAGIPIRIGVNAGSLDPRLMQKYGKATPEALVESALWEAGLFEEHGFGDIKISVKHNDPVIMVEAYRQLAAQCNYPLHLGVTEAGPAFQGTIKSAVAFGALLADGIGDTIRVSLSAPPAEEIKVGTQILQSLNLRPRKLEIVSCPSCGRAQVDVYTLADEVTAGLEGMEIPLRVAVMGCVVNGPGEAREADLGVASGNGKGQIFVKGKVIKTVPEAQIVETLIEEAMRIAEEMEGDATSGSPVVTVS
MGSDKIHHHHHHMSNSELYYEELTDLSVRIALGIKNRTEPLDELSQAMTQLSQTNAIKGNAANAMKAYINEVHMTLIQTLELLLNNYEMALGKYVKGYLEVDSDESFKLIKEDFDAHKNNLSSHQSDFTSIGNKLKAISDEAEDIISLRGAGSKRLFNVAKDMGTMKEIVSNLNNKWNDYEQSDPGFNQVQDLIAQTTSLLKSTLSVPRGYSYSPGSFSKLISKDFVNAFEVNANYAQNPDNQKAFKANWNSISKNYTTDQKRMAEEAKEEAQKDGRIGLIWDAIASCCRNSACCDRSWSGFWCCSHCRWY
MAFAKDLKRRNVLQEAVYHRIKADFDLGAQAAVRTVKKVCDAYATFKANLRAGNYGLEGSKRRIKAESKPVRFRETSAQPFDDRMLTWNLDTKMVSVWTVAGRLKGIPFVCSPEAMRLLAQRKGESDLVMRDGMFFLLATIDIPEPEVSGPDGFLGVDLGIVNIATTSDGRIMSSRQVNRYRQRKRDLRGKLQKKRTKSAARVLKRQRRKEARYATQRNHIIARKLVHTAERTSRGIGLEDLTGIRQRVTAREDQRARLHSWAFAQLGAFVEYKAKRAGVAVVHVDPRNTSRQCSECWHTHRTNRVTRARFVCRSCGIVLHADHNGSRNIAHRADAAWQRGAANRPRTPAAALEHHHHHH

Reference: the DeepSol protein solubility set
